Here are results for one substance from patent US20260226143A1.

This experiment has as its target soluble Aβ oligomers (human). The experiment in a line: cell-based or functional assay.

As to human IgG isotype control antibody, the Mean (Aβ spots per neuron), Isotype Control 1:50 (Aβ spots per neuron) was determined as 58.7.
